The target in the test is PA-63 (Bacillus anthracis, UniProt P13423 197-764).

Numbering of substitutions follows the chain as printed.

PA-63, sequence (P13423 197-764 limits assumed): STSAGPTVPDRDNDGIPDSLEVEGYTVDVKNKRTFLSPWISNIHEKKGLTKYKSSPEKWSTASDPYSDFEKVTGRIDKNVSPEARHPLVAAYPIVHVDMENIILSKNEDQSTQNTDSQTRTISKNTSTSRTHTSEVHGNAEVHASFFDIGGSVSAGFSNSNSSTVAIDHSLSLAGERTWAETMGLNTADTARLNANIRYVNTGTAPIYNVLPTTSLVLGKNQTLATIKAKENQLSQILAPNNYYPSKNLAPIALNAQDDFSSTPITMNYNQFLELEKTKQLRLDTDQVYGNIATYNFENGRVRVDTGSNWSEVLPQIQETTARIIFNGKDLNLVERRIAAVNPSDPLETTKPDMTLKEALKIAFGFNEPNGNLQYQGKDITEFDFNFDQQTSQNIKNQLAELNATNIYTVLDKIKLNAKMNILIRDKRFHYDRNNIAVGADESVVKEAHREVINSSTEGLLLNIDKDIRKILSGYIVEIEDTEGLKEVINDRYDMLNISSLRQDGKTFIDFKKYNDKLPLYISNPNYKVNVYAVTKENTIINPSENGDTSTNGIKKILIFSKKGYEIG

B1: YMB2 IgG (antibody, V domains shown)
VH: EVQLQQSGAELVKPGASVKLSCTASGFNIKDTYMHWVKQRPEQGLEWIGRIDPENGNTKYDPKFQGKATITADTSSNTAYLQLSSLTSEDTAVYYCARFLITTGYFDYWGQGTTLTVSS
VL: DIVLTQSHKFMSTSVGDRVSITCKASQDVGTAVAWYQQKPGQSPKLLIYWASTRHTGVPDRFTGSGSGTDFTLTISNVQSEDLADYFCQQYSSYPLTFGAGTKLEIKR
Regarding B1, binding was characterised by a dissociation constant (Kd) of 437 nM, the off-rate constant (koff) was determined as 0.014 s⁻¹ and the kon worked out at 32000 M⁻¹ s⁻¹.

B2: YMF10 IgG (antibody, V domains shown)
VH: EVQLQQSGAELVRSGASVKLSCTASGFNIKDYYMHWVKQRPEQGLEWIGWIDPENGDTEYAPKFQGKATMSADTSSNTAYLQLSSLTSEDTAVYYCNAGTPFEGLRRADYWGQGTTLTVSS
VL: B1 VL with L4M, I106L, K107N
Regarding B2, the affinity, expressed as Kd, was 31 nM; the koff stood at 0.015 s⁻¹; the kon is 490000 M⁻¹ s⁻¹.

B3: YMD1 IgG (antibody, V domains shown)
VH: B2 VH with Q5V, Q6E, S71T, R107K
VL: B1 VL with L4M, F10L, K45R, S76T, L96Y, A100G
Consider B3, for which the Kd stood at 55 nM, the koff was determined as 0.019 s⁻¹ and the kon turned out to be 350000 M⁻¹ s⁻¹.

One may read the Kd as a measure of binding affinity in units of concentration. What is called koff is the first-order rate constant of dissociation. The low end stands for a long-lived complex, the high end for a short-lived complex. By kon is commonly meant the second-order rate constant of association.
